35 sequences from the supplement of paper PMC12764529 can be followed below.

The nature of series [1]: folding stability dG unfold from trypsin proteolysis; higher = more stable. A digest of the protocol: (§1)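 Designed mini-proteins with no cysteine and under 80 residues were kept only if AlphaFold2 dimer inter-PAE was above 15. In a PA-tagged cDNA display construct, they were digested with trypsin and chymotrypsin and then sequenced. K50 was inferred by Bayesian fitting of counts, and unfolding free energy was derived per protease or combined against a sequence-predicted unfolded-state K50 and a shared folded-state K50.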

A short description of series [2]: folding stability dG unfold from chymotrypsin proteolysis; higher = more stable. A digest of the protocol: as §1
Series [3] is described as follows: folding stability dG unfold (combined trypsin and chymotrypsin); higher = more stable. A digest of the protocol:
as §1

± gives the half width of the 95% confidence interval.

On to “SAGGSALKNSTLRITVERGNVPFTVEVKLKSVVVDLESGKVDVELPEEFKKLFKGPVKILSLEIPDSAGGSA [r15_710_TrMRF]”, for which the “folding stability dG unfold” value in series [1] came to 0.884 ± 0.057 kcal/mol; in series [2] it was 1.82 ± 0.11 kcal/mol; in series [3], 1.53 ± 0.17 kcal/mol.
With “SAGGSALLEALKKLAEELGLEVELEEVRVETETRTETRTLPDGRTETRTETEVRVEVKVTVRPKPASAGGSA [r15_561_TrROS_Hall]”, the “folding stability dG unfold” value in series [1] amounted to 2.59 ± 0.075 kcal/mol; in series [2], 2.72 ± 0.1 kcal/mol; in series [3] it was 2.71 ± 0.082 kcal/mol.
The corresponding values for “SAGGSALPIETPSDGVVPYTDPVTGKTYTVTFRRDEGKTSFRVEEPESSATREVTEPVSVTEAVLTSAGGSA [r15_234_JUSTAS]” are -0.219 ± 0.12 kcal/mol, 0.069 ± 0.13 kcal/mol and 0.000309 ± 0.084 kcal/mol.
The like results for “SAGGSALPPDAPFTVEREVPFTLPDGALVTLYYNPETGTVLVRFYPPDGGEVRVEAKAEEALALLSSAGGSA [r15_2_TrMRF]” were, in that order, 1.17 ± 0.019 kcal/mol, 1.34 ± 0.06 kcal/mol and 1.31 ± 0.039 kcal/mol.
The like results for “SAGGSAMAIVEYDPDNRVRAIVYFPGEKRVALVEVDDDTATVTAVYDLSDDGVATYLDEATFEIGGSAGGSA [r2_60_TrMRF]” were, in that order, 0.896 ± 0.048 kcal/mol, 0.87 ± 0.043 kcal/mol and 0.922 ± 0.046 kcal/mol.
As to “SAGGSAMEELKEKVLEAWKKLTPDTPVTIKEINPEKKEITIETTSEEAKEKLKKAAKEMGIKIKIKSAGGSA [r15_196_JUSTAS]”, the “folding stability dG unfold” value is 0.71 ± 0.27 kcal/mol in series [1], 1.28 ± 0.33 kcal/mol in series [2] and 0.63 ± 0.39 kcal/mol in series [3].
The like results for “SAGGSAMEIEVTLTDPALLEALIAELPYPVEVSEDPTDPSVTRVTLRTETSAEEVREAVARALGLESAGGSA [r15_118_JUSTAS]” were, in that order, 0.732 ± 0.037 kcal/mol, 1.27 ± 0.06 kcal/mol and 1.07 ± 0.081 kcal/mol.
Take “SAGGSAMEIVAVEKGDNTVTLLLRDPETGELYTATFHFIPGSKTVHATVTFPDGSTATFTFDATALSAGGSA [r15_1055_TrMRF]”: the “folding stability dG unfold” value in series [1] turned out to be 2.82 ± 0.09 kcal/mol; in series [2], 4.32 ± 0.068 kcal/mol; in series [3], 4.01 ± 0.12 kcal/mol.
The like results for “SAGGSAMERVTITLPDGRELTIERFPEEPNRFVLTFPDGRRLEFEFESPEEGLRAALELVLAGKEGSAGGSA [r15_38_TrMRF]” were, in that order, 3.34 ± 0.075 kcal/mol, 4.13 ± 0.042 kcal/mol and 3.91 ± 0.06 kcal/mol.
For the sequence “SAGGSAMFMFELTIPPNAKIPPGYKLKIRFPNGKEEEYKFNNGPIKIWFYMDPDGNIQLDLEVEKKSAGGSA [r15_992_TrROS]”, the “folding stability dG unfold” value in series [1] was 2.97 ± 0.09 kcal/mol; in series [2], 4.9 ± 0.14 kcal/mol; in series [3], 4.35 ± 0.15 kcal/mol.
On to “SAGGSAMIEVKIEVPDDASEEEKAELAEKIKKEIKASGVEPTENGIPVKKSLENVEVKVTFLKKKKSAGGSA [r15_717_JUSTAS]”, for which the “folding stability dG unfold” value in series [1] was -0.469 ± 0.2 kcal/mol; in series [2], 0.074 ± 0.33 kcal/mol; in series [3], -0.196 ± 0.38 kcal/mol.
The corresponding values for “SAGGSAMITLEDIKALGPDNPIRTFPETGLVFVERPGELTLYKFDPKTNTVTKLKTFNSPEEKEKLSAGGSA [r15_6_JUSTAS]” are 0.405 ± 0.035 kcal/mol, 1.15 ± 0.083 kcal/mol and 0.863 ± 0.069 kcal/mol.
The like results for “SAGGSAMKEGKPAVEVEVTVLIELSAEEIAKLLGKEIKEGDTVLITVKVRVYPDGSVEIEIRVEKLSAGGSA [r15_91_TrROS_Hall]” were, in that order, 2.87 ± 0.15 kcal/mol, 3.19 ± 0.17 kcal/mol and 3.08 ± 0.17 kcal/mol.
The like results for “SAGGSAMKEITIEVDGKTVRVKVYFKDTGKVVERTFPKGTSVEELAKELEEEFGKDVEIVEVEEVPSAGGSA [r15_544_TrROS_Hall]” were, in that order, 2.43 ± 0.11 kcal/mol, 3.57 ± 0.11 kcal/mol and 3.24 ± 0.15 kcal/mol.
“SAGGSAMKIELENAKILDIKPTPDGKKVIFIELPSGKIIAVYEDNKVAVRSKKDPSVKPEDADPVFSAGGSA [r15_692_TrMRF]”: the “folding stability dG unfold” value in series [1] was determined as 0.374 ± 0.07 kcal/mol; in series [2], 1.17 ± 0.046 kcal/mol; in series [3], 0.892 ± 0.11 kcal/mol.
“SAGGSAMKITYKPPSGETTVHPIPPGLTPEERRALAEELAKALQEKTGDPNVTVEFDPATGEITVASAGGSA [r15_33_JUSTAS]”: the “folding stability dG unfold” value in series [1] is 1.33 ± 0.034 kcal/mol; in series [2] it was -0.0618 ± 0.15 kcal/mol; in series [3] it was 0.84 ± 0.11 kcal/mol.
The like results for “SAGGSAMKIVEKKTVTLTLPDGREVTVTLTKVEVDGETYYVLTVTDKDTGKTYTFVFKPGQSLEDLSAGGSA [r15_75_TrROS_Hall]” were, in that order, 3.17 ± 0.092 kcal/mol, 4.67 ± 0.083 kcal/mol and 4.39 ± 0.2 kcal/mol.
Regarding “SAGGSAMKLKLTFVADSPEQAEQLAEEYTRLNPELFPGEKDYPLEIEVYVLVAPPLVPPSPEELAGSAGGSA [r15_663_TrMRF]”, the “folding stability dG unfold” value in series [1] was determined as 1.23 ± 0.051 kcal/mol; in series [2] it was 2.12 ± 0.27 kcal/mol; in series [3] it was 1.69 ± 0.27 kcal/mol.
As for “SAGGSAMKLTAETTDPGSDRFEATIYDPSDSGGDSVVSFESEEELEAFIKNLPSSVASVSLVPTSPSAGGSA [r15_589_JUSTAS]”, the “folding stability dG unfold” value in series [1] was 0.983 ± 0.017 kcal/mol; in series [2], 0.378 ± 0.035 kcal/mol; in series [3], 0.728 ± 0.033 kcal/mol.
The corresponding values for “SAGGSAMKPDDYVVIKIEIENMSEEEIAKKLADELKKLFPDVEVKVTVEKEEDGRYRVTIEVVLKKSAGGSA [r15_916_TrROS_Hall]” are 1.83 ± 0.056 kcal/mol, 3.34 ± 0.15 kcal/mol and 2.83 ± 0.26 kcal/mol.
The corresponding values for “SAGGSAMKPGQKLLVKNKKTNKIYEITFDKDTGKVYIHNKKTGKTYEFDSLEDALKKMGFEPVKVESAGGSA [r15_500_TrROS_Hall]” are 1.43 ± 0.078 kcal/mol, 2.45 ± 0.08 kcal/mol and 2.28 ± 0.16 kcal/mol.
On to “SAGGSAMKVEIVLKVPGDEMLDIEVDEEFPVVDQTIDKETGIVTVLLEGDPEKAEEIAKEIAEKLGSAGGSA [r15_662_TrMRF]”, for which the “folding stability dG unfold” value in series [1] stood at 0.6 ± 0.069 kcal/mol; in series [2] it was 0.299 ± 0.044 kcal/mol; in series [3], 0.511 ± 0.1 kcal/mol.
For the sequence “SAGGSAMKVIVTVKILDKGEVKTLTEEEAKKYLEEHPEEVKEVEVETTVESDATESFTDIDLNGLKSAGGSA [r15_99_JUSTAS]”, the “folding stability dG unfold” value in series [1] is -0.185 ± 0.21 kcal/mol; in series [2], 0.462 ± 0.047 kcal/mol; in series [3] it was 0.416 ± 0.23 kcal/mol.
The corresponding values for “SAGGSAMLIRFVRDDKTVELRPFSSIEEARAFLEKGPVEEIEPREAPGGERVTFRAKLPDGEVLVESAGGSA [r15_632_JUSTAS]” are -0.466 ± 0.23 kcal/mol, -0.743 ± 0.33 kcal/mol and -0.542 ± 0.15 kcal/mol.
The like results for “SAGGSAMLLIKITIETKDGEKYEIVVEAESEEEALAALKEKARELFPELSEEDVKIVDIEVYELEESAGGSA [r15_220_TrROS_Hall]” were, in that order, 4.58 ± 0.25 kcal/mol, 4.25 ± 0.088 kcal/mol and 4.29 ± 0.13 kcal/mol.
As for “SAGGSAMMELEIEIKVEGMTEEELRELAERLAAELTPEGWKVVAVRVERVDEEEGVVRVTVVVEPVSAGGSA [r15_96_TrROS_Hall]”, the “folding stability dG unfold” value in series [1] turned out to be 4.31 ± 0.35 kcal/mol; in series [2], 3.83 ± 0.16 kcal/mol; in series [3] it was 4.18 ± 0.27 kcal/mol.
With “SAGGSAMPDNMKPVGSIPMVYLVPDGWIMRINYEYWKNPESGMWMINMDIEVFPLPKNDPELLKAISAGGSA [r15_207_TrROS]”, the “folding stability dG unfold” value in series [1] amounted to 2.42 ± 0.18 kcal/mol; in series [2], 2.65 ± 0.093 kcal/mol; in series [3], 2.62 ± 0.18 kcal/mol.
Consider “SAGGSAMPEVKVEVEIIERDPENEDYVLVRIKVEVRFKTEDGEEVEVREERELLVFPSEEELKKALSAGGSA [r15_1019_TrROS_Hall]”, for which the results for the “folding stability dG unfold” value in series [1], in series [2] and in series [3] were 2.02 ± 0.064 kcal/mol, 1.82 ± 0.048 kcal/mol and 1.89 ± 0.33 kcal/mol, respectively.
The like results for “SAGGSAMPILTDTVYEIPVDRSPDETEEEIKEYLKELLLKKLPPGTEVKLEVKFDPETGTVTVKVVSAGGSA [r15_739_JUSTAS]” were, in that order, 1.96 ± 0.12 kcal/mol, 0.972 ± 0.037 kcal/mol and 1.58 ± 0.12 kcal/mol.
The corresponding values for “SAGGSAMPKIEVTVYFPENGTETVEIHFPPGKVITGPLSLLEEIIESGIPKENISISYKTLSPSLTSAGGSA [r15_955_JUSTAS]” are 1.64 ± 0.03 kcal/mol, 1.05 ± 0.061 kcal/mol and 1.37 ± 0.041 kcal/mol.
On to “SAGGSAMPKKVVEGPVPPEDVEARIAELLEEDPNLTYVKFTYPELGSEVVIDFENGKVTKIERLLESAGGSA [r15_166_JUSTAS]”, for which the “folding stability dG unfold” value in series [1] is -0.217 ± 0.1 kcal/mol; in series [2] it was 0.211 ± 0.1 kcal/mol; in series [3], 0.108 ± 0.052 kcal/mol.
The like results for “SAGGSAMPKYVISGIYRLPDKTLFFDYVIPPGLAENPERVKELAEEIRELLEQLGYPAVDFKIEPVSAGGSA [r15_781_TrMRF]” were, in that order, 1.65 ± 0.043 kcal/mol, 2.09 ± 0.065 kcal/mol and 1.99 ± 0.098 kcal/mol.
“SAGGSAMPPVKVEVVEAEPFVVEGEGGLYLVRPFLVRAPDLPRLFLVVLVEDPGEPDVLAEVFDLDSAGGSA [r15_528_TrMRF]”: the “folding stability dG unfold” value came out at 1.84 ± 0.041 kcal/mol in series [1], 2.55 ± 0.045 kcal/mol in series [2] and 2.37 ± 0.099 kcal/mol in series [3].
Consider “SAGGSAMPVKTSTTTEGDTVTTYTLEPVGGSTTLTTTTTTVTKTNSGTTTTSTTTTTPLPTASGATSAGGSA [r15_725_JUSTAS]”, for which the “folding stability dG unfold” value was -0.0787 ± 0.022 kcal/mol in series [1], -0.108 ± 0.074 kcal/mol in series [2] and -0.014 ± 0.074 kcal/mol in series [3].
For the sequence “SAGGSAMPVVEIEIEVSEEEAEELVKKLKELFPEVEEVEVERTEDGLRIRVRVKLPPLTEEELKAKSAGGSA [r15_166_TrROS_Hall]”, the “folding stability dG unfold” value in series [1] was determined as 1.17 ± 0.026 kcal/mol; in series [2] it was 0.987 ± 0.042 kcal/mol; in series [3], 1.04 ± 0.054 kcal/mol.
